Reference: patent US9119806B2, “Culturing circular ssDNA viruses for the production of vaccines” (priority 2007, dated 2015)

How the values were obtained:
[1] = test system: PCV2 capsids on 3D4/31 cells; experiment: Attachment of PCV2 capsids (virion-like particles) on 3D4/31 cells; assay type: cell-based, Porcine circovirus 2; conditions: 4° C., 0-60 minutes
Experimental: The attachment of PCV2 capsids onto untreated 3D4/31 cells and 3D4/31 cells pre-treated with IFN-gamma was studied as described by Misinzo et al. (J Gen Virol. conditionally accepted for publication). Briefly, treated and untreated 3D4/31 cells were chilled on ice and washed before PCV2 capsids were added and allowed to attach for 0, 1, 5, 10, 15, 30 and 60 minutes at 4° C. Unbound PCV2 capsids were washed-off and cells were fixed with 3% (w/v) paraformaldehyde in phosphate-buffered saline with calcium and magnesium (PBS+) at room temperature for 10 minutes. In order to stain the PCV2 capsids, cells were incubated with biotin-conjugated anti-PCV2 swine polyclonal antibodies and streptavidin-FITC (Molecular Probes, Leiden, The Netherlands) for 1 hour at room temperature. The slides were mounted and analysed by acquisition of digital images of stained PCV2 capsids using a Leica TCS SP2 laser scanning spectral confocal system (Leica Microsystems GmbH, Heidelberg, Germany) linked to a Leica DM/IRB inverted microscope (Leica Microsystems GmbH, Wetzlar, Germany). Successive images from the apex to the base of a single cell were taken and merged. The number of PCV2 capsids attached per cell was counted for ten cells at each time point to establish their binding kinetics into 3D4/31 cells.

[2] = test system: PCV2 proteins in PK-15 cells; experiment: Expression kinetics of PCV2 proteins (capsid, REP) in PK-15 cells, immunofluorescence; assay type: cell-based, Porcine circovirus 2
Experimental: To determine the timing and localisation of PCV2 proteins expression (Capsid protein and REP), PK-15 cells were seeded on glass cover slips and inoculated with PCV2. After inoculation, culture medium was added with or without 500 U/ml IFN-gamma. At 0, 12, 24, 36, 48 and 72 hpi the cells were fixed in methanol at −20° C. Afterwards, a triple immunofluorescence staining was performed to visualize both viral proteins and the cell nucleus. PCV2 capsid protein was detected using purified biotinylated porcine polyclonal anti-PCV2 immunoglobulins which only react with PCV2 capsid proteins. Bound porcine immunoglobulins were visualized with streptavidin conjugated Texas Red (molecular probes, Leiden, The Netherlands). In a second step, the REP protein was detected with a specific mouse monoclonal antibody (F210) visualized with goat-anti-mouse FITC (molecular probes, Leiden, The Netherlands). In a final step, the nuclei of the cells were visualized with Hoechst 33342 (Molecular Probes, Oreg., USA) at a concentration of 0.1 mg/ml. The number of cells with capsid and/or REP protein was counted and the localisation of viral antigens was monitored by fluorescence microscopy.

[3] = test system: PCV2 (field strain Imp-1121); experiment: PCV2 replication in inoculated pigs given IFN-gamma or ConA; assay type: in vivo; conditions: pigs inoculated at 19 days of age; samples 10, 15, 21 days post inoculation
Experimental: Pigs are inoculated with PCV2 (field strain Imp-1121) at 19 days of age. These inoculated pigs are divided in 3 groups. One group contains control pigs (only PCV2). The second group of pigs receives recombinant IFN-gamma (100,000 U per pig every three days). The third group contains pigs that receive ConA (1.5 mg/kg every three days). At different times post inoculation (10, 15, 21 days) samples are collected and the replication of the virus is assessed.

[4] = treated (500 U/ml) and non-treated PK-15 cells

B1: IFN-gamma: Porcine interferon gamma purchased from R&D systems (protein, UniProt P17803 24-166, looked up)
Interferon gamma: QAPFFKEITILKDYFNASTSDVPNGGPLFLEILKNWKEESDKKIIQSQIVSFYFKFFEIFKDNQAIQRSMDVIKQDMFQRFLNGSSGKLNDFEKLIKIPVDNLQIQRKAISELIKVMNDLSPRSNLRKRKRSQTMFQGQRASK
number of attached virion-like particles per cell and binding kinetics (in words) [1]: No differences were observed | influence on sequence of events of PCV2 protein expression (in words) ([2]; PK-15, 500 U/ml after inoculation): did not influence | first nuclear localisation of both proteins ([2]; both cultures): 24 hpi | first detection of REP protein [2, 4]: 24 hpi | first detection of capsid protein [2, 4]: 12 hpi | replication of PCV2 compared to control pigs (in words) [3]: increase in the replication of PCV2
